{"source": "the supplement of paper PMC6755084", "parents": {"B1": {"name": "F1*; the commonest letter at each place (parent)", "chain": "GAGACCGCAACTGAAAAGTTGTTATCACTTGTCGTAAGACACTTTGGATGGGTTGAAGTTCTGCACGTAGAAGCAAAAGGC"}}, "data": [{"variants_of": "B1", "assay": "fraction ligated after 30 min (ligated reads / total reads); higher = more ligase activity", "settings": "with F1*sub RNA substrate (template-directed ligation), 42 °C", "protocol": "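Chip-synthesised pool of F1* ligase ribozyme variants (all single and double substitutions, single, double and triple deletions in the catalytic core and GAA bulge, plus designed variants) was transcribed with T7 and reacted as a pool with excess substrate F1*sub for 30 min at 42 C in 50 mM EPPS pH 8.5, 25 mM MgCl2. Ligated and unligated bands were separated by PAGE, barcoded by RT and deep sequenced; fraction ligated = ligated reads / total reads per variant, relative activity = FL / FL of wild type (0.826). Sequences are the DNA template of the ribozyme.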", "values": [{"variant": "A48G A57T", "fraction ligated": 0.795}, {"variant": "A48G A57C", "fraction ligated": 0.792}, {"variant": "T23G T45A", "fraction ligated": 0.795}, {"variant": "A27C T30C", "fraction ligated": 0.774}, {"variant": "G46T A48T", "fraction ligated": 0.144}, {"variant": "A27C A57G", "fraction ligated": 0.773}, {"variant": "A27C A57C", "fraction ligated": 0.787}, {"variant": "A27C A57T", "fraction ligated": 0.807}, {"variant": "T35G A36T", "fraction ligated": 0.851}, {"variant": "A24G A27G", "fraction ligated": 0.701}, {"variant": "T35C A39T", "fraction ligated": 0.825}, {"variant": "A24C T30C", "fraction ligated": 0.168}, {"variant": "T25G G55C", "fraction ligated": 0.0471}, {"variant": "A36T G47T", "fraction ligated": 0.383}, {"variant": "T35A A39C", "fraction ligated": 0.828}, {"variant": "G47T A48T", "fraction ligated": 0.283}, {"variant": "C40A T43G", "fraction ligated": 0.801}, {"variant": "A27C T44A", "fraction ligated": 0.79}, {"variant": "G46T A57G", "fraction ligated": 0.795}, {"variant": "A27T A41T", "fraction ligated": 0.779}, {"variant": "A57G", "fraction ligated": 0.822}, {"variant": "C28G T49A", "fraction ligated": 0.656}, {"variant": "A27T A36G", "fraction ligated": 0.862}, {"variant": "T45G T49C", "fraction ligated": 0.0508}, {"variant": "T45G T49G", "fraction ligated": 0.0893}, {"variant": "A36C C42G", "fraction ligated": 0.839}, {"variant": "T29A C42A", "fraction ligated": 0.86}, {"variant": "T23A T30G", "fraction ligated": 0.803}, {"variant": "T29A G55T", "fraction ligated": 0.788}, {"variant": "C26G C28T", "fraction ligated": 0.558}, {"variant": "T29G", "fraction ligated": 0.829}, {"variant": "A24T T49C", "fraction ligated": 0.694}, {"variant": "G34T A41C", "fraction ligated": 0.755}, {"variant": "T29C G47T", "fraction ligated": 0.508}, {"variant": "T35G A37C", "fraction ligated": 0.868}, {"variant": "T44A A48G", "fraction ligated": 0.808}, {"variant": "T44C A48G", "fraction ligated": 0.821}, {"variant": "C28T A41C", "fraction ligated": 0.792}, {"variant": "T25C T32A", "fraction ligated": 0.745}, {"variant": "A37C T45A", "fraction ligated": 0.78}, {"variant": "G38T A39T", "fraction ligated": 0.817}, {"variant": "T25A G46A", "fraction ligated": 0.279}, {"variant": "T30C G47A", "fraction ligated": 0.798}, {"variant": "C40G T43C", "fraction ligated": 0.811}, {"variant": "A41C T49A", "fraction ligated": 0.178}, {"variant": "A39G G47C", "fraction ligated": 0.343}, {"variant": "C26G A27G", "fraction ligated": 0.694}, {"variant": "T32A A57T", "fraction ligated": 0.821}, {"variant": "C26A A37G", "fraction ligated": 0.785}, {"variant": "G31T A48G", "fraction ligated": 0.49}, {"variant": "A39C G47A", "fraction ligated": 0.757}, {"variant": "T29C C42T", "fraction ligated": 0.828}, {"variant": "T23C A37C", "fraction ligated": 0.821}, {"variant": "T30A T32G", "fraction ligated": 0.842}, {"variant": "T30A T32A", "fraction ligated": 0.843}, {"variant": "G31T G34A", "fraction ligated": 0.775}, {"variant": "G38T C42G", "fraction ligated": 0.845}, {"variant": "A27T T32G", "fraction ligated": 0.838}, {"variant": "A39G T45G", "fraction ligated": 0.389}, {"variant": "A36G G47C", "fraction ligated": 0.0195}, {"variant": "A27T T29A", "fraction ligated": 0.803}, {"variant": "A27T T29G", "fraction ligated": 0.805}, {"variant": "T30A A48G", "fraction ligated": 0.806}, {"variant": "A24C G31T", "fraction ligated": 0.0308}, {"variant": "A24C G31A", "fraction ligated": 0.0336}, {"variant": "T25C T45G", "fraction ligated": 0.0359}, {"variant": "A41C A56T", "fraction ligated": 0.615}, {"variant": "A36T G55A", "fraction ligated": 0.842}, {"variant": "T35A G38A", "fraction ligated": 0.863}, {"variant": "T35A G38C", "fraction ligated": 0.855}, {"variant": "A36G T43G", "fraction ligated": 0.776}, {"variant": "A27G A56G", "fraction ligated": 0.755}, {"variant": "T44G A57T", "fraction ligated": 0.857}, {"variant": "G47C A56G", "fraction ligated": 0.0569}, {"variant": "A37G G55A", "fraction ligated": 0.846}, {"variant": "T45G G47T", "fraction ligated": 0.0452}, {"variant": "G47A A56T", "fraction ligated": 0.181}, {"variant": "A41C T44A", "fraction ligated": 0.764}, {"variant": "G31T A56G", "fraction ligated": 0.679}, {"variant": "A39T A56G", "fraction ligated": 0.78}, {"variant": "G31C T45C", "fraction ligated": 0.0406}, {"variant": "C33A A41T", "fraction ligated": 0.839}, {"variant": "T30A T35A", "fraction ligated": 0.839}, {"variant": "G50C A57T", "fraction ligated": 0.0648}, {"variant": "A27C T35C", "fraction ligated": 0.813}, {"variant": "A27C T35G", "fraction ligated": 0.82}, {"variant": "T25A T30G", "fraction ligated": 0.461}, {"variant": "G47A T49C", "fraction ligated": 0.773}, {"variant": "T49A G50T", "fraction ligated": 0.769}, {"variant": "T29G T43A", "fraction ligated": 0.826}, {"variant": "A27G C40G", "fraction ligated": 0.813}, {"variant": "A27G C40T", "fraction ligated": 0.817}, {"variant": "C33G G50T", "fraction ligated": 0.545}, {"variant": "A48G G55C", "fraction ligated": 0.108}, {"variant": "G34A A36C", "fraction ligated": 0.83}, {"variant": "G38A C40G", "fraction ligated": 0.843}, {"variant": "G38A C40T", "fraction ligated": 0.833}, {"variant": "G31A A36T", "fraction ligated": 0.827}, {"variant": "T35G A39G", "fraction ligated": 0.799}, {"variant": "T45C G46A", "fraction ligated": 0.127}, {"variant": "T32G T45A", "fraction ligated": 0.748}, {"variant": "C28T T49G", "fraction ligated": 0.811}, {"variant": "C26G T44A", "fraction ligated": 0.781}, {"variant": "A36C A56G", "fraction ligated": 0.794}, {"variant": "G31A C33A", "fraction ligated": 0.833}, {"variant": "T44C A57T", "fraction ligated": 0.806}, {"variant": "T32A A39C", "fraction ligated": 0.837}, {"variant": "A27T T44C", "fraction ligated": 0.775}, {"variant": "T29A T43A", "fraction ligated": 0.84}, {"variant": "A24G T25A", "fraction ligated": 0.697}, {"variant": "C26G G50T", "fraction ligated": 0.0691}, {"variant": "C28G A41T", "fraction ligated": 0.801}, {"variant": "A24C T32G", "fraction ligated": 0.144}, {"variant": "A24C T32C", "fraction ligated": 0.062}, {"variant": "T25C G31T", "fraction ligated": 0.546}, {"variant": "T44C G46A", "fraction ligated": 0.778}, {"variant": "A27C A48C", "fraction ligated": 0.748}, {"variant": "T23C G55A", "fraction ligated": 0.783}, {"variant": "C40G G50T", "fraction ligated": 0.548}, {"variant": "T23G A48G", "fraction ligated": 0.788}, {"variant": "T25G C33A", "fraction ligated": 0.526}, {"variant": "A41T", "fraction ligated": 0.837}, {"variant": "A36C C40T", "fraction ligated": 0.818}, {"variant": "T30A C40G", "fraction ligated": 0.803}, {"variant": "C28G T32A", "fraction ligated": 0.795}, {"variant": "C28G T32C", "fraction ligated": 0.723}, {"variant": "A24T A56T", "fraction ligated": 0.0614}, {"variant": "T43G T45C", "fraction ligated": 0.319}, {"variant": "A27C A56T", "fraction ligated": 0.787}, {"variant": "A41T T44C", "fraction ligated": 0.806}, {"variant": "T30A T43G", "fraction ligated": 0.8}, {"variant": "C26A C42T", "fraction ligated": 0.793}, {"variant": "T25A C28A", "fraction ligated": 0.396}, {"variant": "A24G T29A", "fraction ligated": 0.807}, {"variant": "G38T T44G", "fraction ligated": 0.828}, {"variant": "T25G A41G", "fraction ligated": 0.492}, {"variant": "T45A A48C", "fraction ligated": 0.23}, {"variant": "T32G T49A", "fraction ligated": 0.56}, {"variant": "T32G T49G", "fraction ligated": 0.669}, {"variant": "A39T T45C", "fraction ligated": 0.676}, {"variant": "C26G G47C", "fraction ligated": 0.404}, {"variant": "A24G A56G", "fraction ligated": 0.0845}, {"variant": "T53G", "fraction ligated": 0.831}, {"variant": "A37C G38T", "fraction ligated": 0.844}, {"variant": "A36G C42A", "fraction ligated": 0.836}, {"variant": "C42G A57C", "fraction ligated": 0.818}, {"variant": "A36T A48C", "fraction ligated": 0.767}, {"variant": "T23C T25C", "fraction ligated": 0.782}, {"variant": "T45A A56G", "fraction ligated": 0.768}, {"variant": "A36G G50A", "fraction ligated": 0.41}, {"variant": "A27C C40G", "fraction ligated": 0.783}, {"variant": "A36C G50A", "fraction ligated": 0.619}, {"variant": "T23C C26A", "fraction ligated": 0.371}, {"variant": "A37G A57C", "fraction ligated": 0.82}, {"variant": "G38T A57C", "fraction ligated": 0.811}, {"variant": "T23G T43C", "fraction ligated": 0.747}, {"variant": "T29C G50A", "fraction ligated": 0.116}, {"variant": "A39C T49C", "fraction ligated": 0.159}, {"variant": "A24T C28G", "fraction ligated": 0.373}, {"variant": "C33A T49G", "fraction ligated": 0.739}, {"variant": "T30A A41G", "fraction ligated": 0.798}, {"variant": "T43C T44A", "fraction ligated": 0.833}, {"variant": "T29A T32G", "fraction ligated": 0.842}, {"variant": "T43G", "fraction ligated": 0.822}, {"variant": "A24C T49C", "fraction ligated": 0.731}, {"variant": "T23G G47A", "fraction ligated": 0.79}, {"variant": "G31A A37G", "fraction ligated": 0.827}]}]}
